In article PMC3510509, “Binding of two DNA molecules by type II topoisomerases for decatenation” (Nucleic Acids Research, 2012):

Biological target: T1, Mycobacterium smegmatis DNA gyrase subunit A (GyrA) (M. smegmatis, UniProt P48354 1-842)
T1 construct: DNA gyrase subunit A, Mycobacterium smegmatis; also called MsGyrA; M. smegmatis GyrA
Assay: cross-linking; glutaraldehyde; gyrase subunits mixed 1:1 in supercoiling reaction buffer, on ice 30 min, then cross-linked at 37°C for 30 min; products resolved on SDS-PAGE, silver stained
Details: both partners purified

binding result: binds
B1: Mycobacterium smegmatis DNA gyrase subunit B (GyrB) (natural protein, M. smegmatis, UniProt A0QNE0 1-675, looked up)
chain: MAAQKNNAPKEYGADSITILEGLEAVRKRPGMYIGSTGERGLHHLIWEVVDNAVDEAMAGFATRVDVKIHADGSVEVRDDGRGIPVEMHATGMPTIDVVMTQLHAGGKFDGETYAVSGGLHGVGVSVVNALSTRLEATVLRDGYEWFQYYDRSVPGKLKQGGETKETGTTIRFWADPEIFETTDYNFETVARRLQEMAFLNKGLTIELTDERVTAEEVVDDVVKDTAEAPKTADEKAAEATGPSKVKHRVFHYPGGLVDYVKHINRTKTPIQQSIIDFDGKGPGHEVEIAMQWNAGYSESVHTFANTINTHEGGTHEEGFRAALTSVVNRYAKDKKLLKDKDPNLTGDDIREGLAAVISVKVAEPQFEGQTKTKLGNTEVKSFVQKICNEQLQHWFEANPAEAKTVVNKAVSSAQARIAARKARELVRRKSATDIGGLPGKLADCRSTDPSKSELYVVEGDSAGGSAKSGRDSMFQAILPLRGKIINVEKARIDRVLKNTEVQSIITALGTGIHDEFDISKLRYHKIVLMADADVDGQHISTLLLTLLFRFMKPLVENGHIFLAQPPLYKLKWQRSEPEFAYSDRERDGLLEAGRAAGKKINVDDGIQRYKGLGEMDAKELWETTMDPSVRVLRQVTLDDAAAADELFSILMGEDVEARRSFITRNAKDVRFLDV
notes: DNA gyrase subunit B, Mycobacterium smegmatis, wild type; also called MsGyrB; M. smegmatis GyrB
